Reference: the supplement of paper PMC9732359
± gives the uncertainty stated by the source.

Experiment: protein stability index of a GFP-peptide fusion (yeast GPS) (PSI 1-4); higher = more stable; sorted into four equal gates, so the index is relative within each strain
Conditions: doa10∆
In short: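 The protein stability index combines read frequencies across sorting gates, each weighted by its gate number and then summed. To obtain those frequencies, a pooled yeast library of GFP fusions to tiled 17-residue yeast protein peptides, on a plasmid also expressing Cherry, was grown to mid-log phase in leucine-free medium. The cells were sorted into four equal gates by GFP/Cherry ratio before plasmid amplification by PCR and Illumina sequencing.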

Sequence	protein stability index
NTLIPESSLTISLYFND [ECM29]	1.92 ± 0.046
NTLLVTGPFKVNGVPLR [RPL6B]	2.74 ± 0.12

Same assay, conditions: pdr5∆

Sequence	protein stability index
NESLIPLINLALIDTEF [YML103C/NUP188]	1.9 ± 0.088
NESSLALEFVSLLLSSV [SRB4]	1.33 ± 0.048
NESSTFLKLVLSESPVD [SIN4]	1.95 ± 0.052
NETKKRNFLETVELQVG [RPL1A]	2.72 ± 0.23
NETNDKKRNPSKQNGSK [PRP28]	3.15 ± 0.066
NFEKPKNSSQLLNEWSH [RPN5]	3.11 ± 0.078
NFESISARSSVHESLVT [SRB8]	2.1 ± 0.039
NFIIWINSIDTTESSDL [GRR1]	2.38 ± 0.047
NFKKFNERRKDLAERAS [SMC3]	1.97 ± 0.073
NFKMLVLLATWNLEKWR [IRR1]	1.3 ± 0.071
NFLDNCLFENDLQRLKP [ITC1]	3.07 ± 0.063
NFNKFFKIWHGEINKIC [PCI8]	1.13 ± 0.046
NFNPDNGFAPISEVMED [FAS1]	3.06 ± 0.042
NGAGGLMYATDWQMMTS [CSL4]	2.93 ± 0.12
NGCIFTLNPKTGHLFLK [PRP8]	2.92 ± 0.082
NGDEGDDENEPKRKRRL [YOR098C/NUP1]	3.24 ± 0.14
NGDKMPLKFKLGPLSYQ [YJR042W/NUP85]	3.09 ± 0.096
NGGKFSKSNLIHNYDSK [RGR1]	2.71 ± 0.06
NGGLIHVVTREKGPQVC [RPO21]	3.09 ± 0.11
NGLGTSHINTNVGDNNS [ARP7]	2.77 ± 0.099
NGTVNNNSALSNVNSDI [RPT3]	2.77 ± 0.067
NHVMYTEVSRKSMKYVK [ECM29]	2.61 ± 0.06
NIAFDAHMSIGCLHKGK [YML031W/NDC1]	2.7 ± 0.089
NIERKQTRKEYNTSILE [SIN4]	2.94 ± 0.062
NIFKAEMDSVSKSMKFS [CSN9]	2.58 ± 0.066
NIIQAKRDAKAAGSYYV [RPL7A]	3.24 ± 0.082

Sequence	protein stability index
NIKFLSKLEGTINKAVQ [ESC2]	3.35 ± 0.14
NIKPVEQHHINNLKNSG [GAL11]	2.59 ± 0.049
NIMVTIDGCVKIGDLGL [SSN3]	3.12 ± 0.14
NISHLLEIASSIDCLLI [SWI1]	2.16 ± 0.046
NISISTSELGNDDFSEV [BRR2]	3.19 ± 0.096
NISNAKLANFFSKKGNE [YAR002W/NUP60]	3.05 ± 0.062
NIVKLCFVHRYKDVSDL [IRR1]	2.71 ± 0.059
NIVSDAGANDTSNNETN [GRR1]	2.37 ± 0.2
NKAQAKMDKRAKNSDSA [RPL8A]	3.38 ± 0.11
NKAQAKMDKRAKTSDSA [RPL8B]	3.02 ± 0.12
NKASLAQYEVLANYLTS [QCR2]	2.41 ± 0.051
NKGWKLQSLNESKDLLR [SRB4]	2.57 ± 0.1
NKIIPNVGLCITIYDLL [RPC25]	1.29 ± 0.068
NKKIYQWNKLTSFDIKR [POP6]	2.95 ± 0.079
NKKLIKKLSKKYNAFIA [RPL1A]	1.94 ± 0.052
NKLGALKTNFETEWNLQ [RPB11]	2.9 ± 0.077
NKNGNAVCSTATVVSTN [PGD1]	2.83 ± 0.061
NKTNNEDLFDDYPSTSL [NUT1]	3.09 ± 0.054
NKYQIKKAVKELYEVDV [RPL25]	3.15 ± 0.078
NLKYLDNSNVMTVKLES [RGR1]	1.87 ± 0.11
NLLKFITSNHKSSVPGS [RPN3]	2.77 ± 0.1
NLMILNTKVPVDIVNQW [YML103C/NUP188]	2.12 ± 0.084
NLQREIDQAHVSEITKL [RPN14]	2.81 ± 0.058
NLQTADTVIIFDTDWNP [SNF2]	2.96 ± 0.091
NLQVELLSEHDDHNGEV [YGL100W/SEH1]	3.2 ± 0.071
NLRLKILTIIEEYKKSL [GRR1]	1.6 ± 0.055

Sequence	protein stability index
NLSVTSPYNADFDGDEM [RPO21]	3.14 ± 0.059
NLTRGINLRKVAEKMNG [RPT6]	1.47 ± 0.05
NLVKEKEALQNNIFKEF [SMC1]	3.06 ± 0.12
NMLLDPAANESEVANNG [RRP42]	2.74 ± 0.059
NMPNCDYLTLNKVVVNL [RPN2]	2.88 ± 0.061
NNANVLGGEINDNEDDD [BRR2]	3.2 ± 0.082
NNAVRFSKQCLISNAIY [ECM29]	2.39 ± 0.088
NNCEDFVSRPDRTMLAP [FAS1]	2.98 ± 0.17
NNDDDDNSVEQGRRLGE [MCD1]	3.46 ± 0.21
NNDFKLSIDKVLKKPNR [RET1]	2.84 ± 0.12
NNDGSYGLFLKYHKEQF [SRB8]	2.34 ± 0.07
NNESNKNNNGDEKNKNN [MED2]	3.39 ± 0.066
NNGSKDHGDGILLIDSE [RPN9]	3.19 ± 0.17
NNIDQSLILKESGSTPI [YAR002W/NUP60]	1.78 ± 0.1
NNIRQAICRYANVIKAL [RRP4]	1.36 ± 0.07
NNKFANKIIPNVGLCIT [RPC25]	3.04 ± 0.082
NNLEPRQTTSNTGLLNK [RPN11]	3.24 ± 0.061
NNLKNSGNSANNMNVNM [GAL11]	2.9 ± 0.041
NNLSNQLETLTGSIRHR [CSE2]	2.98 ± 0.06
NNNNSTRPQMPSRTRET [GRR1]	3.108 ± 0.027
NNQQRLLLKKLDNFQKS [SMC3]	2.64 ± 0.068
NNTKAGRRKTWKRQNTL [RPL15A]	2.95 ± 0.07
NNTNNANSSITPAFGSN [YJL041W/NSP1]	3.06 ± 0.11
NNTTTTSTKPSFSFGAP [YOR098C/NUP1]	3.38 ± 0.1
NNVDNKYKSGGKFSFSP [SSN2]	2.37 ± 0.044
NPLADAEEALEPSYIFE [PRE4]	2.83 ± 0.077

Sequence	protein stability index
NPNPSSQRAQVVTMSVK [RPC37]	2.83 ± 0.071
NPSITRLEEESSWQIYS [RRP4]	3.07 ± 0.21
NQIADLSGKFSTIPTRE [ROX3]	2.96 ± 0.093
NQIQRQQQQQFRHHVQI [SNF5]	2.08 ± 0.045
NQKIPDNVIVINHKINN [SIR3]	2.03 ± 0.053
NQNQRNVNETMSRSLAN [SMC3]	2.65 ± 0.12
NQQPQQQQQQQQNPKFL [SWI1]	3.02 ± 0.04
NQQQPPQDILSKLYLLL [SNF11]	2.55 ± 0.051
NQSAYEWNGKSFQKKSN [ISW2]	3.12 ± 0.17
NRYAYVLSSLMFANMKV [LRP1]	2.25 ± 0.058
NSDDFFMDNSYDIDEID [ESC2]	2.64 ± 0.077
NSEKYYDEDPYGFEDES [RPB2]	3.32 ± 0.079
NSGIIPGNRNADNVDKI [FAS2]	2.52 ± 0.1
NSIDVPIRINSTEEIEY [YMR129W/POM152]	2.27 ± 0.058
NSILSVRDPWSIDFRTY [SRB2]	2.68 ± 0.14
NSKMPTRFPPAVFYTPK [PRP8]	3.09 ± 0.068
NSMDMVDGMAKVPIGLI [RGR1]	3.37 ± 0.072
NSNDSVFVGSGKGTGKT [BRR2]	3.27 ± 0.16
NSNGIAMASLYLTGGQQ [SMD1]	2.66 ± 0.06
NSPSKGNSERPSAVAGF [YIL149C/MLP2]	3.45 ± 0.1
NSPSSALRALQENGTIF [YDL088C/ASM4]	2.05 ± 0.053
NSSSSTPNTNSNSTPNA [SWI1]	2.98 ± 0.09
NSTDGAKITEIGSTSKR [YIL149C/MLP2]	2.91 ± 0.086
NTHYHADYRLILTGTPL [SNF2]	1.71 ± 0.097
